Earlier results in publication PMC6814268.

Key:
[1] = target: CEACAM1 IgV (Homo sapiens) (UniProt P13688)
[2] = target: CEACAM5 IgV (Homo sapiens) (UniProt P06731)

| Substance | Kd [1] | Kd [2] |
| --- | --- | --- |
| CEACAM1 IgV (from UniProt P13688) | 450 nM |  |
| CEACAM5 IgV (from UniProt P06731) |  | 800 nM |
